Where no end group is shown, it is not given here. [ ]: non-standard residue; d: D form. pS = N[C@@H](COP(=O)(O)O)C(=O)O

In general, Kd refers to the concentration at which binding is half-saturated.

B1: FLAG-tagged WT MCPH1 (human) (natural protein)
chain: MAAPILKDVVAYVEVWSSNGTENYSKTFTTQLVDMGAKVSKTFNKQVTHVIFKDGYQSTWDKAQKRGVKLVSVLWVEKCRTAGAHIDESLFPAANMNEHLSSLIKKKRKCMQPKDFNFKTPENDKRFQKKFEKMAKELQRQKTNLDDDVPILLFESNGSLIYTPTIEINSRHHSAMEKRLQEMKEKRENLSPTSSQMIQQSHDNPSNSLCEAPLNISRDTLCSDEYFAGGLHSSFDDLCGNSGCGNQERKLEGSINDIKSDVCISSLVLKANNIHSSPSFTHLDKSSPQKFLSNLSKEEINLQRNIAGKVVTPDQKQAAGMSQETFEEKYRLSPTLSSTKGHLLIHSRPRSSSVKRKRVSHGSHSPPKEKCKRKRSTRRSIMPRLQLCRSEDRLQHVAGPALEALSCGESSYDDYFSPDNLKERYSENLPPESQLPSSPAQLSCRSLSKKERTSIFEMSDFSCVGKKTRTVDITNFTAKTISSPRKTGNGEGRATSSCVTSAPEEALRCCRQAGKEDACPEGNGFSYTIEDPALPKGHDDDLTPLEGSLEEMKEAVGLKSTQNKGTTSKISNSSEGEAQSEHEPCFIVDCNMETSTEEKENLPGGYSGSVKNRPTRHDVLDDSCDGFKDLIKPHEELKKSGRGKKPTRTLVMTSMPSEKQNVVIQVVDKLKGFSIAPDVCETTTHVLSGKPLRTLNVLLGIARGCWVLSYDWVLWSLELGHWISEEPFELSHHFPAAPLCRSECHLSAGPYRGTLFADQPAMFVSPASSPPVAKLCELVHLCGGRVSQVPRQASIVIGPYSGKKKATVKYLSEKWVLDSITQHKVCAPENYLLSQ
B2: FLAG-MCPH1^S333A (natural protein)
chain: MAAPILKDVVAYVEVWSSNGTENYSKTFTTQLVDMGAKVSKTFNKQVTHVIFKDGYQSTWDKAQKRGVKLVSVLWVEKCRTAGAHIDESLFPAANMNEHLSSLIKKKRKCMQPKDFNFKTPENDKRFQKKFEKMAKELQRQKTNLDDDVPILLFESNGSLIYTPTIEINSRHHSAMEKRLQEMKEKRENLSPTSSQMIQQSHDNPSNSLCEAPLNISRDTLCSDEYFAGGLHSSFDDLCGNSGCGNQERKLEGSINDIKSDVCISSLVLKANNIHSSPSFTHLDKSSPQKFLSNLSKEEINLQRNIAGKVVTPDQKQAAGMSQETFEEKYRLAPTLSSTKGHLLIHSRPRSSSVKRKRVSHGSHSPPKEKCKRKRSTRRSIMPRLQLCRSEDRLQHVAGPALEALSCGESSYDDYFSPDNLKERYSENLPPESQLPSSPAQLSCRSLSKKERTSIFEMSDFSCVGKKTRTVDITNFTAKTISSPRKTGNGEGRATSSCVTSAPEEALRCCRQAGKEDACPEGNGFSYTIEDPALPKGHDDDLTPLEGSLEEMKEAVGLKSTQNKGTTSKISNSSEGEAQSEHEPCFIVDCNMETSTEEKENLPGGYSGSVKNRPTRHDVLDDSCDGFKDLIKPHEELKKSGRGKKPTRTLVMTSMPSEKQNVVIQVVDKLKGFSIAPDVCETTTHVLSGKPLRTLNVLLGIARGCWVLSYDWVLWSLELGHWISEEPFELSHHFPAAPLCRSECHLSAGPYRGTLFADQPAMFVSPASSPPVAKLCELVHLCGGRVSQVPRQASIVIGPYSGKKKATVKYLSEKWVLDSITQHKVCAPENYLLSQ

One test has as its target TRF2^TRFH (TRF Homology domain of human TRF2, residues 42–245) (human). Kind of test: ITC; MCPH1^TBM peptides at 1.0 mM in the syringe titrated into TRF2^TRFH at 0.1 mM in the sample cell; 20 °C; 25 mM Tris-HCl pH 8.0, 150 mM NaCl. For orientation: ITC needs no label: the signal is the heat of the interaction.
Turning to SQETFEEKYRLSPTLSSTKGH [MCPH1^TBM peptide, wild type, synthetic], the Kd amounted to 0.24 µM.

SQETFEEKYRL[pS]PTLSSTKGH (also: phosphoserine at S333, position in peptide not given here) [MCPH1^TBM peptide phosphorylated at S333, synthetic] returned a Kd of 79 µM.

For the molecule SQETFEEKYRLSATLSSTKGH [MCPH1^TBM peptide P334A, synthetic], the Kd worked out at 24 µM.

Take SQETFEEKYRLEPTLSSTKGH [MCPH1^TBM peptide S333E, synthetic]: the Kd came to 14 µM.

In turn, SQETFEEKYRLAPTLSSTKGH [MCPH1^TBM peptide S333A, synthetic] displayed a Kd of 0.16 µM.

Consider SQETFEEKYRLDPTLSSTKGH [MCPH1^TBM peptide S333D, synthetic], for which the Kd is 21 µM.

The next test deals with TRF2, endogenous (U2OS) (human (endogenous in U2OS)) (UniProt Q15554).
Sequence of UniProt Q15554 (Q15554 whole entry): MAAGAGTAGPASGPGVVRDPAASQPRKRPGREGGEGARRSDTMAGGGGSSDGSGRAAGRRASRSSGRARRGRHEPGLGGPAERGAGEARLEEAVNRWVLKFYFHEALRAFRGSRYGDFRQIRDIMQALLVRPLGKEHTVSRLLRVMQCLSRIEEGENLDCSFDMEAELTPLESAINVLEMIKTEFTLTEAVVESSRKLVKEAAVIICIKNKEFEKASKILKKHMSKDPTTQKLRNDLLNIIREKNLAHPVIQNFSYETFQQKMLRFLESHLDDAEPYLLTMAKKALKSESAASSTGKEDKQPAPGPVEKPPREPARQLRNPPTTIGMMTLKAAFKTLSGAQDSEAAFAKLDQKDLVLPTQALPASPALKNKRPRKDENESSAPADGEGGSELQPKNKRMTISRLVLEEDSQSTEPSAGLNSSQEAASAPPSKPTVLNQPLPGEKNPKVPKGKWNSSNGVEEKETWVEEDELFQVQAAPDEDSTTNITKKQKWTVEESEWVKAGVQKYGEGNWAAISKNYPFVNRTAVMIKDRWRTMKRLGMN
Assay: not given
For B1, the percentage of HeLa cells with >5 FLAG-MCPH1 foci at telomeres (immunostaining and telomere PNA-FISH), functional telomeres is 11 % of cells.

For the molecule B2, the percentage of HeLa cells with >5 FLAG-MCPH1 foci at telomeres (immunostaining and telomere PNA-FISH), functional telomeres was 48 % of cells.

For the origin of these results see PMC7672075.
